Assay results: the RNAGym collection of RNA variant scans (doi:10.1093/molbev/msab373)

B1: Azoarcus group I ribozyme (parent)
chain: GUGCCUUGCGCCGGGAAACCACGCAAGGGAUGGUGUCAAAUUCGGCGAAACCUAAGCGCCCGCCCGGGCGUAUGGCAACGCCGAGCCAAGCUUCGGCGCCUGCGCCGAUGAAGGUGUAGAGACUAGACGGCACCCACCUAAGGCAAACGCUAUGGUGAAGGCAUAGUCCAGGGAGUGGCGAAAGUCACACAAACCGG

Variants of: B1
Assay: reverse-splicing fitness (ratio to wild type); higher = more active; in vitro selection; Mg2+ level not given
In short: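 An in vitro group I ribozyme library with randomized positions was T7-transcribed and gel-purified. In triplicate, 10 pmol RNA in EPPS pH 7.5 was reacted with 50 pmoles of a 30-nt RNA substrate for 1 h at 37 °C across several added MgCl2 levels (1–48 mM), then stopped with EDTA. Products were reverse transcribed from a substrate-complementary primer, PCR-amplified and sequenced (HiSeq 4000). Fitness is a variant's read proportion after selection over that before, normalised to wild type.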

Variant	reverse-splicing fitness
C82A A111C C150U U176C	0.0554
C82A A111C C150U U176G	0.0134
C82A A111G A120C A145U C150G C169G U176C	0.00564
C82A A111G A120C A145U C150G C169G U176G	0.00589
C82A A111G A120C A145U C150G C169G U176A	0.00801
C82A A111G A120C C150A C169A U176C	0.0231
C82A A111G A120C C150A C169A U176A	0.0277
C82A A111G A120C C150A C169A U176G	0.00754
C82A A111G A120C C169G U176C	0.0237
C82A A111G A120C C169G U176A	0.0206
C82A A111G A120C C169G U176G	0.00548
C82A A111G A120C A145C C150U	0.0161
C82A A111G A120C A145C C150G	0.00968
C82A A111G A120C A145C C150A	0.00953
C82A A111C C169A U176C	0.0237
C82A A111C C169A U176G	0.00874
C82A A111C C169A U176A	0.0171
C82A A111G A120C A145G C150A C169G U176G	0.00711
C82A A111G A120C A145G C150A C169G U176C	0.0242
C82A A111G A120C A145G C150A C169G U176A	0.0211
C82A A111G A120C A145G C150U C169G U176G	0.00629

Variant	reverse-splicing fitness
C82A A111G A120C A145G C150U C169G U176A	0.0161
C82A A111G A120C A145G C150U C169G U176C	0.0192
C82A A111G A120C A145U C169A U176G	0.00526
C82A A111G A120C A145U C169A U176C	0.0152
C82A A111G A120C A145U C169A U176A	0.0138
C82A A111G A120G A145C C150A C169G U176A	0.027
C82A A111G A120G A145C C150A C169G U176C	0.0158
C82A A111G A120G A145C C150A C169G U176G	0.00565
C82A A111G A120C A145C C150U C169U	0.0104
C82A A111G A120C A145C C150U C169A	0.00838
C82A A111G A120C A145C C150U C169G	0.00854
C82A A111G A120C A145C C150G C169U U176G	0.00527
C82A A111G A120C A145C C150G C169U U176A	0.00566
C82A A111G A120C A145C C150G C169U U176C	0.00986
C82A A111G A120C A145G U176A	0.0183
C82A A111G A120C A145G U176C	0.0327
C82A A111G A120C A145G U176G	0.00889
C82A A111G A120C A145G C150G C169G U176A	0.0127
C82A A111G A120C A145G C150G C169G U176C	0.0115
C82A A111G A120C A145G C150G C169G U176G	0.00644
C82A A111G A120C A145U C150G C169U U176A	0.00666

Variant	reverse-splicing fitness
C82A A111G A120C A145U C150G C169U U176C	0.0102
C82A A111G A120C A145U C150G C169U U176G	0.00564
C82A A111G A120C A145C	0.0362
C82A A111G A120C A145G	0.0444
C82A A111G A120C A145U	0.0424
C82A A111C C150U C169G U176G	0.00899
C82A A111G A120G A145C C150U C169U U176A	0.0203
C82A A111G A120G A145C C150U C169U U176C	0.0113
C82A A111G A120G A145C C150U C169U U176G	0.00537
C82A A111G A120C A145U C150A C169A U176C	0.0134
C82A A111G A120C A145U C150A C169A U176G	0.00712
C82A A111G A120C A145U C150A C169A U176A	0.0196
C82A A111G A120C A145C C150A C169G U176A	0.0288
C82A A111G A120C A145C C150A C169G U176C	0.025
C82A A111G A120C A145C C150A C169G U176G	0.00763
C82A A111G A120C A145C C169G U176A	0.0285
C82A A111G A120C A145C C169G U176G	0.00569
C82A A111G A120C A145C C169G U176C	0.0238
C82A A111G A120C A145C C150A C169A U176C	0.0105
C82A A111G A120C A145C C150A C169A U176G	0.00558
C82A A111G A120C A145C C150A C169A U176A	0.0178

Variant	reverse-splicing fitness
C82A A111G A120C C150G	0.0106
C82A A111G A120C C150A	0.0162
C82A A111G A120C C150U	0.0279
C82A A111G A120C A145U C169A	0.00859
C82A A111G A120C A145U C169U	0.0135
C82A A111G A120C A145U C169G	0.00967
C82A A111G A120G A145C C150G	0.00656
C82A A111G A120G A145C C150U	0.0102
C82A A111G A120G A145C C150A	0.0077
C82A A111G A120C C150U C169U U176G	0.00647
C82A A111G A120C C150U C169U U176A	0.014
C82A A111G A120C C150U C169U U176C	0.0125
C82A A111G A120C A145G C150U C169A U176A	0.0194
C82A A111G A120C A145G C150U C169A U176C	0.0172
C82A A111G A120C A145G C150U C169A U176G	0.00816
C82A A111G A120C A145G C150U C169U U176G	0.00671
C82A A111G A120C A145G C150U C169U U176A	0.0141
C82A A111G A120C A145G C150U C169U U176C	0.0148
C82A A111G A120C A145G C150U C169G	0.0101
C82A A111G A120C A145G C150U C169A	0.012
